Measured values: article PMC2908215 (Human mutation, 2010)

Molecular target: T1, MLH1 p.Tyr750X (human, UniProt P40692 1-749)
T1 sequence (looked up): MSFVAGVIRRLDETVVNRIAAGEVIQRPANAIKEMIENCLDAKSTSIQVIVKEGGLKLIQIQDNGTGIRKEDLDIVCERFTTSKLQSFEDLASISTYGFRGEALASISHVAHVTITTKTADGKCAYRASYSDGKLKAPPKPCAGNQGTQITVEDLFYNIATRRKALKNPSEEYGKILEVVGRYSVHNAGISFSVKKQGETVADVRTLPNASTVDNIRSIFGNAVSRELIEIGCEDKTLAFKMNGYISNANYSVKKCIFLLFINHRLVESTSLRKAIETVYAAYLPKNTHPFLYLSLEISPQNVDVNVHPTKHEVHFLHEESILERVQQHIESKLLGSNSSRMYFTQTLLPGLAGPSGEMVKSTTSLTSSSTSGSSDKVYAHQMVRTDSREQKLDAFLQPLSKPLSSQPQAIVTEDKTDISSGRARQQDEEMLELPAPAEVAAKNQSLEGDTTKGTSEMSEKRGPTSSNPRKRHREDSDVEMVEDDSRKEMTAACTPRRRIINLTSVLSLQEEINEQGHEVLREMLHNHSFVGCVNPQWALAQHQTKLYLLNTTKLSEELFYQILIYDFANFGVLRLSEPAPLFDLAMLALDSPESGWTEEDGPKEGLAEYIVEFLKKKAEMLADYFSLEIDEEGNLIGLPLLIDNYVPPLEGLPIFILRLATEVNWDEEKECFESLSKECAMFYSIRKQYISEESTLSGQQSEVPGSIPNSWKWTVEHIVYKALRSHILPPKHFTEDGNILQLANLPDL
Assay: co-IP

B1: PMS2 (natural protein, UniProt P54278 1-862, looked up)
chain: MERAESSSTEPAKAIKPIDRKSVHQICSGQVVLSLSTAVKELVENSLDAGATNIDLKLKDYGVDLIEVSDNGCGVEEENFEGLTLKHHTSKIQEFADLTQVETFGFRGEALSSLCALSDVTISTCHASAKVGTRLMFDHNGKIIQKTPYPRPRGTTVSVQQLFSTLPVRHKEFQRNIKKEYAKMVQVLHAYCIISAGIRVSCTNQLGQGKRQPVVCTGGSPSIKENIGSVFGQKQLQSLIPFVQLPPSDSVCEEYGLSCSDALHNLFYISGFISQCTHGVGRSSTDRQFFFINRRPCDPAKVCRLVNEVYHMYNRHQYPFVVLNISVDSECVDINVTPDKRQILLQEEKLLLAVLKTSLIGMFDSDVNKLNVSQQPLLDVEGNLIKMHAADLEKPMVEKQDQSPSLRTGEEKKDVSISRLREAFSLRHTTENKPHSPKTPEPRRSPLGQKRGMLSSSTSGAISDKGVLRPQKEAVSSSHGPSDPTDRAEVEKDSGHGSTSVDSEGFSIPDTGSHCSSEYAASSPGDRGSQEHVDSQEKAPKTDDSFSDVDCHSNQEDTGCKFRVLPQPTNLATPNTKRFKKEEILSSSDICQKLVNTQDMSASQVDVAVKINKKVVPLDFSMSSLAKRIKQLHHEAQQSEGEQNYRKFRAKICPGENQAAEDELRKEISKTMFAEMEIIGQFNLGFIITKLNEDIFIVDQHATDEKYNFEMLQQHTVLQGQRLIAPQTLNLTAVNEAVLIENLEIFRKNGFDFVIDENAPVTERAKLISLPTSKNWTFGPQDVDELIFMLSDSPGVMCRPSRVKQMFASRACRKSVMIGTALNTSEMKKLITHMGEMDHPWNCPHGRPTMRHIANLGVISQN
co-precipitated PMS2 in relation to wild-type: 23 % of wild-type
